Source: US20070213263A1, “Methods And Compositions Using Adiponectin For Treatment Of Cardiac Disorders And For Stimulation Of Angiogenesis” (The Trustees of Boston University, priority 2003, published 2007)

Assays:
rat cardiac myocytes = assay: Agonist-stimulated hypertrophy of cultured neonatal rat ventricular myocytes; format: cell-based
Description: [^3H] leucine incorporation was determined as previously described 74.
For histological analysis, the mice were sacrificed and LV tissue was obtained at 7 days after TAC. Tissue was embedded in OCT compound (Miles, Elkhart, Ind.) and snap-frozen in liquid nitrogen. Tissue slices (5 μm in thickness) were prepared. Tissue sections were stained with hematoxylin and eosin or with Masson trichrome. The myocyte cross sectional area was calculated by measuring 200 cells per section. To determine sarcomeric F-actin organization, cultured myocytes were stained with FITC-conjugated phalloidin (Sigma, St. Louis, Mo.).

HUVECs [1] = assay: Migration assay (modified Boyden chamber); format: cell-based, human; settings: adiponectin 30 μg/ml, VEGF 20 ng/ml, 4 h
Description: Migration activity was measured using a modified Boyden chamber assay. Serum-starved cells were trypsinized and resuspended in EGM-2 with 0.5% FBS. Cell suspension (250 μl, 2.0×10^4 cells/well) were added to the transwell fibronectin-coated insert (6.4 mm diameter, 3.0 μm pore size, Becton Dickinson, Franklin Lakes, N.J.). Then 750 μl of EGM-2 with 0.5% FBS supplemented with adiponectin (30 μg/ml), VEGF (20 ng/ml) or bovine serum albumin (BSA) (30 μg/ml) were added to lower chamber and incubated for 4 h. Migrated cells on the lower surface of the membrane were fixed, stained with Giemsa stain solution and eight random microscopic fields per well were quantified. All assays were performed in triplicate.

HUVECs [2] = assay: Tube formation assay, HUVECs on Matrigel; format: cell-based, human; settings: adiponectin 30 μg/ml, VEGF 20 ng/ml, 18 h
Description: The formation of vascular-like structures by HUVECs on growth factor-reduced Matrigel (Becton Dickinson) was performed as previously described^28. Twenty-four-well culture plates were coated with Matrigel according to the manufacturer's instructions. […] The degree of tube formation was quantified by measuring the length of tubes in 3 randomly chosen fields from each well using the angiogenic activity quantification program (Kurabo, Osaka, Japan). […]

Akt (Ser 473) = assay: Western blot, Akt phosphorylation in HUVECs; format: cell-based, human; settings: adiponectin 30 μg/ml, time course
Description: (§1) Human umbilical vein endothelium cells (HUVECs) were cultured in endothelial cell growth medium-2 (EGM-2, San Diego, Calif.). Before each experiment, cells were placed in endothelial cell basal medium-2 (EBM-2, San Diego, Calif.) with 0.5% fetal bovine serum (FBS) for 16 h for serum-starvation. Experiments were performed by the addition of the indicated amount of mouse recombinant adiponectin, VEGF or vehicle for the indicated lengths of time. In some experiments, HUVECs were infected with adenoviral constructs encoding dominant-negative AMPKα2^28, dominant-negative AKT1^19 or green fluorescence protein (GFP) at a multiplicity of infection (MOI) of 50 for 24 h. In some experiments, HUVECs were pretreated with LY294002 (10 μM) or vehicle for 1 h before stimulation with adiponectin. Cell lysates were resolved by SDS-PAGE. The membranes were immunoblotted with the indicated antibodies at a 1:1000 dilution followed by the secondary antibody conjugated with horseradish peroxidase (HRP) at a 1:5000 dilution. ECL-PLUS Western Blotting Detection kit (Amersham Pharmacia Biotech, Piscataway, N.J.) was used for detection.

ERK (Thr 202/Tyr 204) [3] = assay: Western blot, ERK phosphorylation in cultured cardiac myocytes; format: cell-based, rat
[4] = system: CD31-positive cells in Matrigel plugs; assay: Mouse angiogenesis assay (Matrigel plug); format: in vivo, C57BL mice; settings: adiponectin 100 μg/ml in plug, subcutaneous, 14 days
Description: The formation of new vessels in vivo was evaluated by Matrigel plug assay as described previously^28. For these experiments, 400 μl of Matrigel containing adiponectin (100 μg/ml) or vehicle was injected subcutaneously into the abdomen of C57BL mice. Mice were sacrificed 14 days after the injection. The Matrigel plugs with adjacent subcutaneous tissues were carefully recovered by en bloc resection, fixed in 4% paraformaldehyde, dehydrated with 30% sucrose, and embedded in OCT compound (GTI Microsystems, Tempe, Ariz.) in liquid nitrogen. Immunohistostaining for CD31 (PECAM-1: Becton Dickinson) were performed on adjacent frozen sections. Primary antibody was used at a 1:50 dilution followed by incubation of secondary antibody (HRP-conjugated anti-rat IgG at a 1:100 dilution). The AEC Substrate Pack (Biogenex, San Ramon, Calif.) was used for detection. CD31-positive capillaries were counted in 4 randomly chosen low-power (×100) microscopic fields.

ERK (Thr 202/Tyr 204) [5] = assay: Western blot, ERK phosphorylation in HUVECs; format: cell-based, human; settings: adiponectin 30 μg/ml, time course
Description: Human umbilical vein endothelium cells (HUVECs) were cultured in endothelial cell growth medium-2 (EGM-2, San Diego, Calif.). Before each experiment, cells were placed in endothelial cell basal medium-2 (EBM-2, San Diego, Calif.) with 0.5% fetal bovine serum (FBS) for 16 h for serum-starvation. Experiments were performed by the addition of the indicated amount of mouse recombinant adiponectin, VEGF or vehicle for the indicated lengths of time. In some experiments, HUVECs were infected with adenoviral constructs encoding dominant-negative AMPKα2^28, dominant-negative AKT1^19 or green fluorescence protein (GFP) at a multiplicity of infection (MOI) of 50 for 24 h. In some experiments, HUVECs were pretreated with LY294002 (10 μM) or vehicle for 1 h before stimulation with adiponectin. Cell lysates were resolved by SDS-PAGE. The membranes were immunoblotted with the indicated antibodies at a 1:1000 dilution followed by the secondary antibody conjugated with horseradish peroxidase (HRP) at a 1:5000 dilution.

[6] = system: cornea neovascularization; assay: Rabbit corneal angiogenesis assay; format: in vivo, New Zealand white rabbits; settings: day 7
Description: Rabbit corneal assay was performed with minor modification as previously described^33. Male New Zealand white rabbits weighing 3.0-3.9 kg were used. Two pockets, about 2×3 mm size and 5 mm apart, were surgically prepared in the cornea extending toward a point 2 mm from the limbus. Hydron pellets, which contain indicated amount of adiponectin, VEGF (100 ng) or PBS and enables the slow release of it^34, were implanted into the pocket. On day 7 after surgery, eyes were photographed and cornea neovascularization was examined in a single blind manner. The angiogenic activity was evaluated on the basis of the number and growth rate of newly formed capillaries. An angiogenic score was calculated (vessel density×distance from limbus)^32. A density value of 1 corresponded to 0-25 vessels per cornea, 2 from […], 3 from 50-75, 4 from 75-100 and 5 for >100 vessels.

eNOS (Ser 1179) = assay: Western blot, eNOS phosphorylation in HUVECs; format: cell-based, human; settings: adiponectin 30 μg/ml
Description: as §1

[7] = system: AMPK (Thr 172 of the α subunit); assay: Western blot, AMPK phosphorylation in cultured cardiac myocytes; format: cell-based, rat; settings: adiponectin 30 μg/ml, time course
[8] = system: AMPK (Thr 172 of α subunit); assay: Western blot, AMPK phosphorylation in HUVECs; format: cell-based, human; settings: adiponectin 30 μg/ml
Description: as §1

endothelial cells = assay: Cell-wounding assay (unpublished data); format: cell-based
[9] = adiponectin 30 μg/ml pretreatment, Pro 2 μM, NE 1 μM, 48 hours

N#CC(=C(/N)Sc1ccccc1N)/C(C#N)=C(\N)Sc1ccccc1N [U0126, reference compound]
reduction of αAR-induced hypertrophy (rat cardiac myocytes; p<0.01 vs. control): 82.1±7.8%

VEGF [reference compound]
HUVEC migration (HUVECs [1]): a trend toward greater migration with VEGF compared to adiponectin, but this was not statistically significant
formation of capillary-like tubes (tube length) (HUVECs [2]): a trend toward increased tube length in the VEGF-treated cultures relative to adiponectin, but this was not statistically significant

B1: adiponectin: Recombinant histidine-tagged mouse adiponectin (amino acids 15-247) expressed in bacteria; adipocyte specific cytokine (protein, UniProt Q15848 19-244, looked up)
Adiponectin: ETTTQGPGVLLPLPKGACTGWMAGIPGHPGHNGAPGRDGRDGTPGEKGEKGDPGLIGPKGDIGETGVPGAEGPRGFPGIQGRKGEPGEGAYVYRSAFSVGLETYVTIPNMPIRFTKIFYNQQNHYDGSTGKFHCNIPGLYYFAYHITVYMKDVKVSLFKKDKAMLFTYDQYQENNVDQASGSVLLHLEVGDQVWLQVYGEGERNGLYADNDNDSTFTGFLLYHDTN
Akt phosphorylation (Akt (Ser 473)): time-dependent increase in Akt phosphorylation
αAR-stimulated ERK phosphorylation (ERK (Thr 202/Tyr 204) [3]; adiponectin 30 μg/ml pretreatment, Pro 2 μM, NE 1 μM): suppressed
AngII-stimulated ERK phosphorylation (ERK (Thr 202/Tyr 204) [3]; data not shown): suppressed AngII-stimulated ERK phosphorylation
ERK phosphorylation, agent alone (ERK (Thr 202/Tyr 204) [3]; without αAR stimulation): no effect on ERK phosphorylation
αAR-stimulated increase in protein synthesis ([3H] leucine incorporation) (rat cardiac myocytes; [9]): prevented
αAR-stimulated re-organization of sarcomeric actin (rat cardiac myocytes; [9]): prevented
AngII-stimulated myocyte hypertrophy (rat cardiac myocytes; data not shown): suppressed
αAR-stimulated increase in myocyte size (rat cardiac myocytes; pretreatment, then Pro 2 μM and NE 1 μM for 48 hours): prevented
actin organization, agent alone (rat cardiac myocytes; without αAR stimulation): no effect
myocyte size, agent alone (rat cardiac myocytes; without αAR stimulation): no effect
protein synthesis, agent alone (rat cardiac myocytes; without αAR stimulation): no effect
density of CD31-positive cells in Matrigel plugs [4]: significantly higher density of CD31-positive cells compared with controls
HUVEC migration (HUVECs [1]): significantly stimulated HUVEC migration
formation of capillary-like tubes (tube length) (HUVECs [2]): promoted the formation of capillary-like tubes in a manner similar to VEGF
phosphorylation of ERK (ERK (Thr 202/Tyr 204) [5]): no effect on the phosphorylation of ERK
stimulatory effect on corneal neovascularization relative to VEGF ([6]; adiponectin 1 μg and 10 μg vs VEGF 100 ng): comparable with that of VEGF
neovascularization in corneal implants ([6]; pellets with adiponectin 1 μg and 10 μg): markedly accelerated compared with controls
eNOS protein levels (eNOS (Ser 1179)): no effect on eNOS protein levels
eNOS phosphorylation at Ser 1179 (eNOS (Ser 1179); time course): time-dependent increase in eNOS phosphorylation
phosphorylation of AMPK [7]: stimulated the phosphorylation of AMPK in cultured cardiac myocytes in a time-dependent manner
time of maximal AMPK phosphorylation [8]: 15 min
phosphorylation of AMPK ([8]; time course): enhanced the phosphorylation of AMPK in a time-dependent manner
endothelial migration in cell-wounding assay (endothelial cells): induced the endothelial migration
